Assay results as given in patent publication US8962344B2, “Membrane-coated particles” (Synamem Corporation, priority 2008, dated 2015).

What was measured:
[1] = Labeled ligand binding to bare silica beads (control for non-specific binding); conditions: silica beads devoid of membranes; FIG. 2C
Description: (§1) The binding of transferrin to its receptor was studied for ligand/receptor interactions, present endogenously in membrane-coated particles derived from CHO cell membranes (Example 1). Freshly-prepared membrane-coated particles were resuspended in 1 ml of binding buffer (10 mM Tris-HCl pH 7.4, 100 mM NaCl). Beads were subsequently pelleted and resuspended in 1 ml of blocking buffer (0.1% w/v casein in binding buffer), and incubated at room temperature for 15 minutes with rotation. Beads were pelleted and resuspended in 980 μL of binding buffer. At this time, any inhibitors or antagonists (e.g. excess of unlabeled transferrin) could have been added for a pre-incubation step. ALEXA FLUOR® 488-conjugated human holotransferrin was added to the membrane-coated particles at a final concentration of 10 μg/ml, followed by incubation at room temperature for 15 minutes with rotation. Following the incubation with transferrin, the beads were washed twice with binding buffer in preparation for viewing using fluorescence microscopy (same microscope apparatus as described in Example 1). The accessibility of membrane proteins (in this case the transferrin receptor) to interact with various ligands and test agents (in this case transferrin) is shown by the results (see FIGS. 2A-2E).

transferrin receptor = target: T1, transferrin receptor (Cricetulus griseus, UniProt Q07891); assay: Ligand binding and displacement assay on membrane-coated particles (fluorescence microscopy); set-up: species or system Chinese Hamster
T1 construct: present endogenously in membrane-coated particles derived from CHO cell membranes; endogenous in cells; host or cells: CHO cell membranes deposited on silica microspheres
Description: as §1

T1 sequence (Q07891 whole entry): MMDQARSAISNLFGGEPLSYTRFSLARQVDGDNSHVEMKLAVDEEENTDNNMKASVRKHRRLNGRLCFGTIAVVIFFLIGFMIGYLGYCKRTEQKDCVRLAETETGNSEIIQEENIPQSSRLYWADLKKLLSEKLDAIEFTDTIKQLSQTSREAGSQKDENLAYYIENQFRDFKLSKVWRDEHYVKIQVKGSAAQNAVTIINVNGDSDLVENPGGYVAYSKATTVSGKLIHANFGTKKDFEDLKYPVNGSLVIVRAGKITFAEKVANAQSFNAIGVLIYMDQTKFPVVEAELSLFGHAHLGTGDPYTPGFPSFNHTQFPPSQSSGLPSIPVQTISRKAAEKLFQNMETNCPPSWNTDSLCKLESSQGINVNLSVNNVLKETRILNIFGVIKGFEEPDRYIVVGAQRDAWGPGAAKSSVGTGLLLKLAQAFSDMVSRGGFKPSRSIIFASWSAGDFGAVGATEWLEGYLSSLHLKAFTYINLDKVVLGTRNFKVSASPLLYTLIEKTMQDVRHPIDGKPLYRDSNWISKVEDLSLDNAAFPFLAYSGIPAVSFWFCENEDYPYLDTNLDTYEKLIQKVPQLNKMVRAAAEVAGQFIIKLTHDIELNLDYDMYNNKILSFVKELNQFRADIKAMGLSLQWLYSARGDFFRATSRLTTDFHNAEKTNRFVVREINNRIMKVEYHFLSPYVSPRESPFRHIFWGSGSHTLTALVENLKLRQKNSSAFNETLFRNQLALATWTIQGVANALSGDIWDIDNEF

interaction of fluorescently-labeled transferrin with bare silica [1]	binding of fluorescently-labeled transferrin to the membrane-coated particles (transferrin receptor; endogenously-expressed transferrin receptor, CHO cell membranes on silica beads, 10 μg/ml, room temperature, 15 minutes, FIG. 2A)	competition of labeled transferrin binding (transferrin receptor; 100-fold molar excess of unlabeled transferrin, CHO membrane-coated particles, FIG. 2B)	Substance
does not interact appreciably	binds efficiently		fluorescently-labeled transferrin: ALEXA FLUOR® 488-conjugated human holotransferrin, labeled ligand of the transferrin receptor
		readily competed away	unlabeled transferrin: unlabeled transferrin used in excess as competitor of labeled transferrin binding
